Assay results taken from publication PMC10127577.

Assays:
[1] = target: cleaved, mature CDTb (from limited trypsinization of proCDTb) (Clostridioides difficile); assay: negative-stain electron microscopy
[2] = target: cleaved, mature CDTb (from limited trypsinization of proCDTb) (Clostridioides difficile); assay: SEC; CDTb oligomerization assay: 500 μg proCDTb at 1 mg/mL, untreated or with trypsin 1:20 (wt/wt) at 37°C for 20 min, with buffer or 2-fold molar excess of Fab; Superdex 200 Increase 10/300 GL in 20 mM Tris pH 8, 100 mM NaCl, 6 mM CaCl2

cleaved, mature CDTb (from limited trypsinization of proCDTb) (natural protein)
stoichiometry N [1]: 14 | percent of cleaved CDTb oligomerized [2]: 5%
